B1: Chitin biosynthesis protein CHS5 (Saccharomyces cerevisiae), Q12114 (parent)
chain: MSSVDVLLTVGKLDASLALLTTQDHHVIEFPTVLLPENVKAGSIIKMQVSQNLEEEKKQRNHFKSIQAKILEKYGTHKPESPVLKIVNVTQTSCVLAWDPLKLGSAKLKSLILYRKGIRSMVIPNPFKVTTTKISGLSVDTPYEFQLKLITTSGTLWSEKVILRTHKMTDMSGITVCLGPLDPLKEISDLQISQCLSHIGARPLQRHVAIDTTHFVCNDLDNEESNEELIRAKHNNIPIVRPEWVRACEVEKRIVGVRGFYLDADQSILKNYTFPPVNEEELSYSKENEPVAEVADENKMPEDTTDVEQVASPNDNESNPSEAKEQGEKSGHETAPVSPVEDPLHASTALENETTIETVNPSVRSLKSEPVGTPNIEENKADSSAEAVVEEPNEAVAESSPNEEATGQKSEDTDTHSNEQADNGFVQTEEVAENNITTESAGENNEPADDAAMEFGRPEAEIETPEVNESIEDANEPAEDSNEPVEDSNKPVKDSNKPVEDSNKPVEDSNKPVEDSNKPVEDANEPVEDTSEPVEDAGEPVQETNEFTTDIASPRHQEEDIELEAEPKDATESVAVEPSNEDVKPEEKGSEAEDDINNVSKEAASGESTTHQKTEASASLESSAVTEEQETTEAEVNTDDVLSTKEAKKNTGNSNSNKKKNKKNKKKGKKK
partner: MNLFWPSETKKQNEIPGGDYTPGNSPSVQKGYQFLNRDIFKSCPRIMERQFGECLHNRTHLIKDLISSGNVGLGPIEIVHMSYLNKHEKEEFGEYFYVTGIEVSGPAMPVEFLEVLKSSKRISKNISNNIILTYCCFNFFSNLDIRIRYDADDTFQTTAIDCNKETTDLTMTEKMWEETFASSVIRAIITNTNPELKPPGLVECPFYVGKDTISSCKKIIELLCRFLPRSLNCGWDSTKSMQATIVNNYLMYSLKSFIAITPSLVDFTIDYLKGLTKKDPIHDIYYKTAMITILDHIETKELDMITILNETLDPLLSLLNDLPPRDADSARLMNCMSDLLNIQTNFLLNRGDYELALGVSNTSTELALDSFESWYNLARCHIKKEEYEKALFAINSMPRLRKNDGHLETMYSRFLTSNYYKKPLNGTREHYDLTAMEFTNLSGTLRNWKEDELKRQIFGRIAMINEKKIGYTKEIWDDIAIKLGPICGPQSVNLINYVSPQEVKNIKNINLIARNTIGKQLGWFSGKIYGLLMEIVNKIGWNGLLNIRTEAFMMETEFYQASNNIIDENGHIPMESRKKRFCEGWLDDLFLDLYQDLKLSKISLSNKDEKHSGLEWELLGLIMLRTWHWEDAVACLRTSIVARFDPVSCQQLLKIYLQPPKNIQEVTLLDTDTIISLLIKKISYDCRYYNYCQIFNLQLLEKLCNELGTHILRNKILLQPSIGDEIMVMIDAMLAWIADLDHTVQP
B2: Chitin biosynthesis protein CHS6 (Saccharomyces cerevisiae), P40955 (parent)
chain: B1 partner
partner: B1 chain

Variants of: B1
Settings: with chs6_yeast CHS6, P40955

| Variant | effect of a mutation on the interaction |
| --- | --- |
| F63E | disrupting interaction |
| Q67E | disrupting interaction |

Variants of: B2
Settings: with chs5_yeast CHS5, Q12114

| Variant | effect of a mutation on the interaction |
| --- | --- |
| I305R | disrupting interaction |

Source: IntAct's records for PubMed 23000721
